According to patent US20240000838A1 (SIMCERE INNOVATION, published 2024):

T1: Human CD5 Protein, HisTag (AcroBiosystems, Cat #CD5-H52H5) (human, UniProt P06127 25-372)
T1 construct: Bought staining reagent, detected with His-APC antibody; also called CD5 antigen; APC labeled CD5 antigen; not shown: His tag
T1 sequence (looked up): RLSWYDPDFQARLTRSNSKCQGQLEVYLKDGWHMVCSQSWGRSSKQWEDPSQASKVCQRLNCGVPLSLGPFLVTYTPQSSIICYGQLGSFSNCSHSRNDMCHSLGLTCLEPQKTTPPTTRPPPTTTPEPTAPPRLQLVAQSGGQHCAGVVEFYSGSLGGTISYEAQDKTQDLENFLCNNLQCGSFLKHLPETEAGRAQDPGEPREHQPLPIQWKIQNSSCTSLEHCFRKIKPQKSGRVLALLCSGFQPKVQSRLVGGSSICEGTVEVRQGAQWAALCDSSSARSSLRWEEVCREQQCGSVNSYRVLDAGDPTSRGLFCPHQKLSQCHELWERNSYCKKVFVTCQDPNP


Biological target: T1, Human CD5 Protein, HisTag …
Test: flow cytometry; CAR-T cells stained with soluble human CD5-His and His-APC antibody
Method: CD3 and CD5 are stained with a CD3-FITC antibody (BD Biosciences, #555339) and a CD5-APC antibody (BD Biosciences, #555355) for 30 minutes at R.T. in the dark. CAR5 surface expression is detected by staining with Human CD5 Protein, HisTag (AcroBiosystems, Cat #CD5-H52H5) for 1 hour at R.T., washed and then incubated with His-APC antibody (R&D Systems, IC050A) for 30 minutes at R.T. in the dark. CAR33 expression is stained with CD33 human protein-PE (Sino Biological, 12238-HCCH_P) for 1 hour at R.T. All the staining is performed at 1:10 dilutions. DAPI (Thermo Scientific, Cat #BV-421, 1:5000) is used to stain dead cells before running by the Attune NxT Flow Cytometer (Thermo Fisher Scientific). Data is further analyzed by either using Attune NxT flow software or FlowJo software.

| Binder | % of T cells stained with CD5 antigen (CAR5 expression) [%] |
| --- | --- |
| CD5 CAR CAR5-2, construct S006 (other, Chimeric antigen receptor on T cells) NIQLVQSGPELKKPGETVKISCKASGYTFTNYGMNWVKQAPGKGLRWMGWINTHTGEPTYADDFKGRFAFSLETSASTAYLQINNLKNEDTATYFCTRRGYDWYFDVWGAGTTVTVSSGGGGSGGGGSGGGGSDIKMTQSPSSMYASLGERVTITCKASQDINSYLSWFHHKPGKSPKTLIYRANRLVDGVPSRFSGSGSGQDYSLTISSLDYEDMGIYYCQQYDESPWTFGGGTKLEMKASTTTPAPRPPTPAPTIASQPLSLRPEACRPAAGGAVHTRGLDFACDIYIWAPLAGTCGVLLLSLVITLYCKRGRKKLLYIFKQPFMRPVQTTQEEDGCSCRFPEEEEGGCELRVKFSRSADAPAYKQGQNQLYNELNLGRREEYDVLDKRRGRDPEMGGKPRRKNPQEGLYNELQKDKMAEAYSEIGMKGERRRGKGHDGLYQGLSTATKDTYDALHMQALPPR | > 80 |
| CD5 CAR CAR5-6, construct S010 (other, Chimeric antigen receptor on T cells) EIQLVQSGGGLVKPGGSVRISCAASGYTFTNYGMNWVRQAPGKGLEWMGWINTHTGEPTYADSFKGRFTFSLDDSKNTAYLQINSLRAEDTAVYFCTRRGYDWYFDVWGQGTTVTVSSGGGGSGGGGSGGGGSDIQMTQSPSSLSASVGDRVTITCRASQDINSYLSWFQQKPGKAPKTLIYRANRLESGVPSRFSGSGSGTDYTLTISSLQYEDFGIYYCQQYDESPWTFGGGTKLEIKASTTTPAPRPPTPAPTIASQPLSLRPEACRPAAGGAVHTRGLDFACDIYIWAPLAGTCGVLLLSLVITLYCKRGRKKLLYIFKQPFMRPVQTTQEEDGCSCRFPEEEEGGCELRVKFSRSADAPAYKQGQNQLYNELNLGRREEYDVLDKRRGRDPEMGGKPRRKNPQEGLYNELQKDKMAEAYSEIGMKGERRRGKGHDGLYQGLSTATKDTYDALHMQALPPR | > 80 |
